B2: TSEN34^H255F, subunit of full-length, catalytically inactive human TSEN (natural protein, UniProt Q9BSV6 1-310, looked up)
chain: MLVVEVANGRSLVWGAEAVQALRERLGVGGRTVGALPRGPRQNSRLGLPLLLMPEEARLLAEIGAVTLVSAPRPDSRHHSLALTSFKRQQEESFQEQSALAAEARETRRQELLEKITEGQAAKKQKLEQASGASSSQEAGSSQAAKEDETSDGQASGEQEEAGPSSSQAGPSNGVAPLPRSALLVQLATARPRPVKARPLDWRVQSKDWPHAGRPAHELRYSIYRDLWERGFFLSAAGKFGGDFLVYPGDPLRFFAHYIAQCWAPEDTIPLQDLVAAGRLGTSVRKTLLLCSPQPDGKVVYTSLQWASLQ

Experiment [1] addresses B2. In words: cryo-EM structure.
For experiment [2], the target named is T1, TSEN54, subunit of full-length, catalytically inactive human TSEN (human, UniProt Q7Z6J9 1-526).
T1 sequence (looked up): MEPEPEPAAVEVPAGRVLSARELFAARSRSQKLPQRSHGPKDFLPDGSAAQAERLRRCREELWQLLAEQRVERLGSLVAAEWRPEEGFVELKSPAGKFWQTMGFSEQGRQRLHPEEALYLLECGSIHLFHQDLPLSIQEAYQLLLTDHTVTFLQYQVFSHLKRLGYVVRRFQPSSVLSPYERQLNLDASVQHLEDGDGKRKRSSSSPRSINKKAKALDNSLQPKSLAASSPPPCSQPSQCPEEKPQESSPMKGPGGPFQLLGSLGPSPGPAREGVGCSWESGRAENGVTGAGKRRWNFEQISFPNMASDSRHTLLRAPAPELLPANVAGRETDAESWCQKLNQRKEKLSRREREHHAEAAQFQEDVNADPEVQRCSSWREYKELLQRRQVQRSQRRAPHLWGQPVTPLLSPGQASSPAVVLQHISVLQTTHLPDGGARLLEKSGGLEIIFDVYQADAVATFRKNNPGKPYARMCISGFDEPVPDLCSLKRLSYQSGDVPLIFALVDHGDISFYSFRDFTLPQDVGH
In words: cryo-EM structure.

B1: TSEN15, subunit of full-length, catalytically inactive human TSEN (natural protein, UniProt Q8WW01 1-171, looked up)
chain: MEERGDSEPTPGCSGLGPGGVRGFGDGGGAPSWAPEDAWMGTHPKYLEMMELDIGDATQVYVAFLVYLDLMESKSWHEVNCVGLPELQLICLVGTEIEGEGLQTVVPTPITASLSHNRIREILKASRKLQGDPDLPMSFTLAIVESDSTIVYYKLTDGFMLPDPQNISLRR
On to B1, for which the binding result in experiment [1] is “binds”. For B2, the binding result in experiment [2] was “binds”.

B3: TSEN2^H377F, subunit of full-length, catalytically inactive human TSEN (natural protein, UniProt Q8NCE0 1-465, looked up)
chain: MAEAVFHAPKRKRRVYETYESPLPIPFGQDHGPLKEFKIFRAEMINNNVIVRNAEDIEQLYGKGYFGKGILSRSRPSFTISDPKLVAKWKDMKTNMPIITSKRYQHSVEWAAELMRRQGQDESTVRRILKDYTKPLEHPPVKRNEEAQVHDKLNSGMVSNMEGTAGGERPSVVNGDSGKSGGVGDPREPLGCLQEGSGCHPTTESFEKSVREDASPLPHVCCCKQDALILQRGLHHEDGSQHIGLLHPGDRGPDHEYVLVEEAECAMSEREAAPNEELVQRNRLICRRNPYRIFEYLQLSLEEAFFLVYALGCLSIYYEKEPLTIVKLWKAFTVVQPTFRTTYMAYHYFRSKGWVPKVGLKYGTDLLLYRKGPPFYFASYSVIIELVDDHFEGSLRRPLSWKSLAALSRVSVNVSKELMLCYLIKPSTMTDKEMESPECMKRIKVQEVILSRWVSSRERSDQDDL
In the case of B3, the binding result in experiment [2] is reported as “binds”.

The values above are taken from publication doi:10.1101/2022.09.03.506465 (bioRxiv, 2022).
